Article PMC9117670, “Structural basis for inhibition of the Cation-chloride cotransporter NKCC1 by the diuretic drug bumetanide” (Nature Communications, 2022)

Target: the molecule itself
Assay: cryo-EM structure; single-particle cryo-EM with bumetanide; low [Cl-] buffer: 20 mM HEPES pH 7.4, 50 mM Na2SO4, 25 mM K2SO4, 5 mM NaCl, 0.06% digitonin, bumetanide to 500 uM

Row | Protein | stoichiometry N
1 | NKCC1iii (full-length human NKCC1 with K289N, A492E and L671C mutations) (natural protein, UniProt P55011 1-1212, looked up, Human Na-K-2Cl cotransporter NKCC1, full length, with K289N, A492E and L671C; MBP followed by a TEV site was fused immediately before the N-terminus and removed with TEV protease before size exclusion and cryo-EM; Residues 927-1021 are not defined in the model; also called Lys289Asn/Ala492Glu/Leu671Cys NKCC1 transporter; NKCCiii; source: HEK293S GnTI-/- cells (BacMam system), purified (amylose …)) MEPRPTAPSSGAPGLAGVGETPSAAALAAARVELPGTAVPSVPEDAAPASRDGGGVRDEGPAAAGDGLGRPLGPTPSQSRFQVDLVSENAGRAAAAAAAAAAAAAAAGAGAGAKQTPADGEASGESEPAKGSEEAKGRFRVNFVDPAASSSAEDSLSDAAGVGVDGPNVSFQNGGDTVLSEGSSLHSGGGGGSGHHQHYYYDTHTNTYYLRTFGHNTMDAVPRIDHYRHTAAQLGEKLLRPSLAELHDELEKEPFEDGFANGEESTPTRDAVVTYTAESKGVVKFGWINGVLVRCMLNIWGVMLFIRLSWIVGQAGIGLSVLVIMMATVVTTITGLSTSAIATNGFVRGGGAYYLISRSLGPEFGGAIGLIFAFANAVAVAMYVVGFAETVVELLKEHSILMIDEINDIRIIGAITVVILLGISVAGMEWEAKAQIVLLVILLLAIGDFVIGTFIPLESKKPKGFFGYKSEIFNENFGPDFREEETFFSVFEIFFPAATGILAGANISGDLADPQSAIPKGTLLAILITTLVYVGIAVSVGSCVVRDATGNVNDTIVTELTNCTSAACKLNFDFSSCESSPCSYGLMNNFQVMSMVSGFTPLISAGIFSATLSSALASLVSAPKIFQALCKDNIYPAFQMFAKGYGKNNEPLRGYILTFLIALGFILIAECNVIAPIISNFFLASYALINFSVFHASLAKSPGWRPAFKYYNMWISLLGAILCCIVMFVINWWAALLTYVIVLGLYIYVTYKKPDVNWGSSTQALTYLNALQHSIRLSGVEDHVKNFRPQCLVMTGAPNSRPALLHLVHDFTKNVGLMICGHVHMGPRRQAMKEMSIDQAKYQRWLIKNKMKAFYAPVHADDLREGAQYLMQAAGLGRMKPNTLVLGFKKDWLQADMRDVDMYINLFHDAFDIQYGVVVIRLKEGLDISHLQGQEELLSSQEKSPGTKDVVVSVEYSKKSDLDTSKPLSEKPITHKVEEEDGKTATQPLLKKESKGPIVPLNVADQKLLEASTQFQKKQGKNTIDVWWLFDDGGLTLLIPYLLTTKKKWKDCKIRVFIGGKINRIDHDRRAMATLLSKFRIDFSDIMVLGDINTKPKKENIIAFEEIIEPYRLHEDDKEQDIADKMKEDEPWRITDNELELYKTKTYRQIRLNELLKEHSSTANIIVMSLPVARKGAVSSALYMAWLEALSKDLPPILLVRGNHQSVLTFYS | 2
2 | NKCC1ii (full-length human NKCC1 with K289N and A492E mutations) (natural protein, UniProt P55011 1-1212, looked up, Human Na-K-2Cl cotransporter NKCC1, full length, with K289N and A492E; MBP followed by a TEV site was fused immediately before the N-terminus and removed with TEV protease before size exclusion and cryo-EM; also called NKCCii; source: HEK293S GnTI-/- cells (BacMam system), purified (amylose resin, TEV protease, Superose 6) in digitonin; not shown: MBP, N-terminal, cleaved) MEPRPTAPSSGAPGLAGVGETPSAAALAAARVELPGTAVPSVPEDAAPASRDGGGVRDEGPAAAGDGLGRPLGPTPSQSRFQVDLVSENAGRAAAAAAAAAAAAAAAGAGAGAKQTPADGEASGESEPAKGSEEAKGRFRVNFVDPAASSSAEDSLSDAAGVGVDGPNVSFQNGGDTVLSEGSSLHSGGGGGSGHHQHYYYDTHTNTYYLRTFGHNTMDAVPRIDHYRHTAAQLGEKLLRPSLAELHDELEKEPFEDGFANGEESTPTRDAVVTYTAESKGVVKFGWINGVLVRCMLNIWGVMLFIRLSWIVGQAGIGLSVLVIMMATVVTTITGLSTSAIATNGFVRGGGAYYLISRSLGPEFGGAIGLIFAFANAVAVAMYVVGFAETVVELLKEHSILMIDEINDIRIIGAITVVILLGISVAGMEWEAKAQIVLLVILLLAIGDFVIGTFIPLESKKPKGFFGYKSEIFNENFGPDFREEETFFSVFEIFFPAATGILAGANISGDLADPQSAIPKGTLLAILITTLVYVGIAVSVGSCVVRDATGNVNDTIVTELTNCTSAACKLNFDFSSCESSPCSYGLMNNFQVMSMVSGFTPLISAGIFSATLSSALASLVSAPKIFQALCKDNIYPAFQMFAKGYGKNNEPLRGYILTFLIALGFILIAELNVIAPIISNFFLASYALINFSVFHASLAKSPGWRPAFKYYNMWISLLGAILCCIVMFVINWWAALLTYVIVLGLYIYVTYKKPDVNWGSSTQALTYLNALQHSIRLSGVEDHVKNFRPQCLVMTGAPNSRPALLHLVHDFTKNVGLMICGHVHMGPRRQAMKEMSIDQAKYQRWLIKNKMKAFYAPVHADDLREGAQYLMQAAGLGRMKPNTLVLGFKKDWLQADMRDVDMYINLFHDAFDIQYGVVVIRLKEGLDISHLQGQEELLSSQEKSPGTKDVVVSVEYSKKSDLDTSKPLSEKPITHKVEEEDGKTATQPLLKKESKGPIVPLNVADQKLLEASTQFQKKQGKNTIDVWWLFDDGGLTLLIPYLLTTKKKWKDCKIRVFIGGKINRIDHDRRAMATLLSKFRIDFSDIMVLGDINTKPKKENIIAFEEIIEPYRLHEDDKEQDIADKMKEDEPWRITDNELELYKTKTYRQIRLNELLKEHSSTANIIVMSLPVARKGAVSSALYMAWLEALSKDLPPILLVRGNHQSVLTFYS | 2
